Results reported in the supplement of paper PMC7125110.
± gives the standard error. For some of these results: This sample holds only a part of the variants without activity.

B1: glmS ribozyme (parent)
chain: AUAAAAGCGCCAGAACUACAGAAAUGUAGUUGACGAGGAGGAGGUUUAUCGAAUUUUCGGCGGAUGCCUCCAAA

Legend:
Details in all cases: with glucosamine-6-phosphate
glucosamine-6-phosphate [1] = variants of: B1; experiment: kcat; higher = faster cleavage; RNA array
Outline: (§1)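 Weighted Michaelis–Menten fits across concentrations supplied kcat and KM, based on kobs from one- or two-exponential decay fits to normalised per-tile medians. The data came from barcoded ribozyme variants transcribed in situ by E. coli RNA polymerase on sequenced MiSeq chips and tracked at 37 °C by a hybridised Cy3 probe. Glucosamine-6-phosphate (40 μM to 10 mM) in HEPES/KCl/Mg(OAc)2 buffer was flowed in.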

glucosamine-6-phosphate [2] = variants of: B1; experiment: KM; higher = weaker cofactor use; RNA array
Outline: as §1

glucosamine-6-phosphate [3] = variants of: B1; experiment: self-cleavage kobs at 2500 uM GlcN6P; higher = faster cleavage; RNA array
Outline: as §1

glucosamine-6-phosphate [4] = variants of: B1; experiment: self-cleavage kobs at 10000 uM GlcN6P; higher = faster cleavage; RNA array
Outline: as §1

glucosamine-6-phosphate [5] = variants of: B1; experiment: self-cleavage kobs at 40 uM GlcN6P; higher = faster cleavage; RNA array
Outline: as §1

glucosamine-6-phosphate [6] = variants of: B1; experiment: self-cleavage kobs at 160 uM GlcN6P; higher = faster cleavage; RNA array
Outline: as §1

glucosamine-6-phosphate [7] = variants of: B1; experiment: self-cleavage kobs at 640 uM GlcN6P; higher = faster cleavage; RNA array
Outline: as §1

Variant	kcat (glucosamine-6-phosphate [1])	KM (glucosamine-6-phosphate [2])	self-cleavage kobs at 2500 uM GlcN6P (glucosamine-6-phosphate [3])	self-cleavage kobs at 10000 uM GlcN6P (glucosamine-6-phosphate [4])	self-cleavage kobs at 40 uM GlcN6P (glucosamine-6-phosphate [5])	self-cleavage kobs at 160 uM GlcN6P (glucosamine-6-phosphate [6])	self-cleavage kobs at 640 uM GlcN6P (glucosamine-6-phosphate [7])
G13C C16U	0.0002194 ± 1.1e-06 s⁻¹	4.19 ± 0.058 mM	8.19e-05 ± 2.5e-05 s⁻¹	0.000155 ± 1.9e-05 s⁻¹			
G13U C50G	4.84e-05 ± 1.3e-05 s⁻¹		5.61e-05 ± 1.2e-05 s⁻¹	2.19e-05 ± 1.1e-05 s⁻¹	4.61e-05 ± 1.2e-05 s⁻¹	8.07e-05 ± 1.7e-05 s⁻¹	6.9e-05 ± 1.6e-05 s⁻¹
G13C U69G	5.45e-05 ± 1.1e-05 s⁻¹		4.52e-05 ± 1.2e-05 s⁻¹		3.61e-05 ± 1.3e-05 s⁻¹	4.33e-05 ± 1.6e-05 s⁻¹	9.44e-05 ± 2.5e-05 s⁻¹
G13A A53U C58A	0.000493 ± 0.00022 s⁻¹		0.000366 ± 0.0001 s⁻¹	0.000332 ± 8.4e-05 s⁻¹			6.46e-05 ± 1.6e-05 s⁻¹
G13U A39G	0.00264 ± 0.00039 s⁻¹	2.07 ± 0.52 mM	0.00177 ± 0.0003 s⁻¹	0.00208 ± 0.00023 s⁻¹	5.19e-05 ± 1.1e-05 s⁻¹	0.000147 ± 3.4e-05 s⁻¹	0.000749 ± 0.00012 s⁻¹
G13U A39C	0.000234 ± 2e-05 s⁻¹	4.49 ± 0.6 mM	8.65e-05 ± 1e-05 s⁻¹	0.000158 ± 2.7e-05 s⁻¹			2.78e-05 ± 6e-06 s⁻¹
G13U A64G	0.00128 ± 0.00031 s⁻¹	4.21 ± 1.6 mM	0.000657 ± 6.9e-05 s⁻¹	0.000847 ± 8.3e-05 s⁻¹		4.62e-05 ± 1.2e-05 s⁻¹	0.000149 ± 1.9e-05 s⁻¹
G13A U56G	0.000892 ± 0.0002 s⁻¹	3.8 ± 1.3 mM	0.000264 ± 5.9e-05 s⁻¹	0.000696 ± 8.2e-05 s⁻¹		4.73e-05 ± 9.8e-06 s⁻¹	0.000128 ± 1.8e-05 s⁻¹
G13A U56C	0.000422 ± 7.9e-06 s⁻¹		8.37e-05 ± 2e-05 s⁻¹	0.00021 ± 3.7e-05 s⁻¹			
G13U C68G	2.36e-05 ± 6.5e-06 s⁻¹						
G13C A53G	0.000174 ± 2.8e-05 s⁻¹	3.55 ± 1.1 mM	7.05e-05 ± 7.7e-06 s⁻¹	0.00013 ± 1.9e-05 s⁻¹			2.97e-05 ± 9e-06 s⁻¹
G13A U47A	0.000438 ± 6e-05 s⁻¹	3.21 ± 0.75 mM	0.000178 ± 3.2e-05 s⁻¹	0.000349 ± 6.5e-05 s⁻¹			7.42e-05 ± 1.6e-05 s⁻¹
G13A G66A	0.000323 ± 2.9e-05 s⁻¹	3.55 ± 0.7 mM	0.000129 ± 3.2e-05 s⁻¹	0.000241 ± 4.7e-05 s⁻¹			
G13A G66U	1.72e-05 ± 6.7e-06 s⁻¹				< 1e-05 s⁻¹		
G13A G59A	< 1e-05 s⁻¹						
G13U G38C	< 1e-05 s⁻¹			< 1e-05 s⁻¹			< 1e-05 s⁻¹
G13C C67G	1.33e-05 ± 8.3e-07 s⁻¹	0.189 ± 0.076 mM					

Variant	kcat (glucosamine-6-phosphate [1])	KM (glucosamine-6-phosphate [2])	self-cleavage kobs at 2500 uM GlcN6P (glucosamine-6-phosphate [3])	self-cleavage kobs at 10000 uM GlcN6P (glucosamine-6-phosphate [4])	self-cleavage kobs at 40 uM GlcN6P (glucosamine-6-phosphate [5])	self-cleavage kobs at 160 uM GlcN6P (glucosamine-6-phosphate [6])	self-cleavage kobs at 640 uM GlcN6P (glucosamine-6-phosphate [7])
G13C G66U	< 1e-05 s⁻¹	0.766 ± 0.35 mM				< 1e-05 s⁻¹	
G13U A14U	0.000743 ± 0.00015 s⁻¹	2.27 ± 1 mM	0.000331 ± 4.6e-05 s⁻¹	0.00066 ± 7.3e-05 s⁻¹		8.56e-05 ± 2.3e-05 s⁻¹	0.000174 ± 3.7e-05 s⁻¹
A12U U56A U65G	0.00677 ± 0.0022 s⁻¹	6.82 ± 3 mM	0.00177 ± 0.00048 s⁻¹	0.00413 ± 0.00071 s⁻¹	6.29e-05 ± 2e-05 s⁻¹	0.00018 ± 4e-05 s⁻¹	0.000445 ± 0.00012 s⁻¹
G13C U54A	0.000202 ± 4.2e-05 s⁻¹	8.81 ± 3.6 mM	4.26e-05 ± 8.3e-06 s⁻¹	0.000108 ± 7.3e-06 s⁻¹			
G13C U54C	0.000135 ± 1.9e-05 s⁻¹	2.87 ± 1 mM	5.89e-05 ± 1.2e-05 s⁻¹	0.000107 ± 1.7e-05 s⁻¹			
G13A A52G	6.74e-05 ± 2.2e-06 s⁻¹	1.04 ± 0.14 mM	4.85e-05 ± 1.2e-05 s⁻¹	6.07e-05 ± 1.1e-05 s⁻¹			
G13A U49C	< 1e-05 s⁻¹			< 1e-05 s⁻¹	< 1e-05 s⁻¹		
G13U G59U C67U	1.71e-05 ± 6.1e-06 s⁻¹						
G13U C67U	0.000313 ± 1.9e-05 s⁻¹	1.68 ± 0.23 mM	0.000177 ± 2e-05 s⁻¹	0.000274 ± 2.4e-05 s⁻¹		2.74e-05 ± 7.6e-06 s⁻¹	8.78e-05 ± 1.1e-05 s⁻¹
G13U A36C	< 1e-05 s⁻¹			< 1e-05 s⁻¹			
A12U U65G	0.00705 ± 0.00071 s⁻¹	4.65 ± 0.73 mM	0.00239 ± 0.00046 s⁻¹	0.00483 ± 0.00044 s⁻¹	5.57e-05 ± 9.8e-06 s⁻¹	0.000303 ± 6.4e-05 s⁻¹	0.000829 ± 0.00018 s⁻¹
G13U G29A	0.000411 ± 4.9e-05 s⁻¹	6.48 ± 1.3 mM	0.000121 ± 2.2e-05 s⁻¹	0.000246 ± 4.2e-05 s⁻¹			3.19e-05 ± 1.3e-05 s⁻¹
G13A C68G	1.81e-05 ± 5e-06 s⁻¹						
A12U U47C	0.0109 ± 0.0038 s⁻¹	1.79 ± 0.84 mM	0.0111 ± 0.0021 s⁻¹	0.00873 ± 0.0011 s⁻¹	0.00032 ± 3.3e-05 s⁻¹	0.000599 ± 0.0001 s⁻¹	0.00299 ± 0.00033 s⁻¹
A12U U47A	0.063 ± 0.02 s⁻¹	1.49 ± 0.57 mM	0.0403 ± 0.011 s⁻¹	0.0554 ± 0.01 s⁻¹	0.00189 ± 0.00018 s⁻¹	0.0041 ± 0.00089 s⁻¹	0.0249 ± 0.0068 s⁻¹
G13A C67A	0.000273 ± 6.7e-05 s⁻¹	4.49 ± 2.1 mM	0.000133 ± 2.4e-05 s⁻¹	0.000181 ± 2.5e-05 s⁻¹			2.62e-05 ± 8.7e-06 s⁻¹
G13A G32C	0.00056 ± 0.00021 s⁻¹		0.000136 ± 1.8e-05 s⁻¹	0.000388 ± 5.3e-05 s⁻¹			6.56e-05 ± 8.7e-06 s⁻¹
